Experimental data as given in paper PMC8403083.

Legend:
enzyme kinetics [1] = substrate: Nc1ncnc2c1ncn2[C@@H]1O[C@H](COP(=O)(O)O)[C@@H](O)[C@H]1O; assay: enzyme kinetics; format: biochemical, Homo sapiens
enzyme kinetics [2] = substrate: Nc1ccn([C@@H]2O[C@H](COP(=O)(O)O)[C@@H](O)[C@H]2O)c(=O)n1; assay: enzyme kinetics; format: biochemical, Homo sapiens

B1: CD73 (5ʹ-Nucleotidase) (Homo sapiens) (protein)
chain: WELTILHTNDVHSRLEQTSEDSSKCVNASRCMGGVARLFTKVQQIRRAEPNVLLLDAGDQYQGTIWFTVYKGAEVAHFMNALRYDAMALGNHEFDNGVEGLIEPLLKEAKFPILSANIKAKGPLASQISGLYLPYKVLPVGDEVVGIVGYTSKETPFLSNPGTNLVFEDEITALQPEVDKLKTLNVNKIIALGHSGFEMDKLIAQKVRGVDVVVGGHSNTFLYTGNPPSKEVPAGKYPFIVTSDDGRKVPVVQAYAFGKYLGYLKIEFDERGNVISSHGNPILLNSSIPEDPSIKADINKWRIKLDNYSTQELGKTIVYLDGSSQSCRFRECNMGNLICDAMINNNLRHTDEMFWNHVSMCILNGGGIRSPIDERNNGTITWENLAAVLPFGGTFDLVQLKGSTLKKAFEHSVHRYGQSTGEFLQVGGIHVVYDLSRKPGDRVVKLDVLCTKCRVPSYDPLKMDEVYKVILPNFLANGGDGFQMIKDELLRHDSGDQDINVVSTYISKMKVIYPAVEGRIK
B1 was tested, and the Km (enzyme kinetics [1]) was 2.7 µM and the Km (enzyme kinetics [2]) was 45 µM.
